The record followed here is patent US20240101685A1, “NEAR INFRARED PHOTOIMMUNOTHERAPY (NIR-PIT) COMBINATION THERAPY TO TREAT CANCER” (THE UNITED STATES OF AMERICA, as represented by the …, priority 2021, published 2024).

For the assay, the system named is PD-L1 expression on cancer cell lines MC38-luc and LL2-luc. Nature of the assay: Flow-cytometric analysis of PD-L1 expression with or without interferon gamma. Type of assay: cell-based. Conditions: cell culture, 20 ng/ml or 50 ng/ml IFNgamma. The procedure: FIG. 12: Flow cytometry analysis showing PD-L1 expression in cancer cell lines before and after stimulation with 20 ng/ml or 50 ng/ml IFNgamma (IFNγ).

B1: interferon gamma: immunoactivator cytokine (protein, UniProt P01579 24-161, looked up)
Interferon gamma: QDPYVKEAENLKKYFNAGHSDVADNGTLFLGILKNWKEESDRKIMQSQIVSFYFKLFKNFKDDQSIQKSVETIKEDMNVKFFNSNKKKRDDFEKLTNYSVTDLNVQRKAIHELIQVMAELSPAAKTGKRKRSQMLFRG
Turning to B1, the PD-L1 expression entry is “conditionally enhanced the expression of PD-L1”. The PD-L1 expression entry (listed as IFN-gamma) is “PD-L1 expression increases”.
